Laboratory results published in patent publication US20250376505A1 (UNIVERSITE DE STRASBOURG, published 2025).

B1: B5P4 (antibody, V domains shown)
VH: QVQLVQSGAEVKKPGSSVKVSCKASGGRFSRYGSSWVRQAPGQGLEWMGGIIPLLGTANYAQKFQDRVSITADESTSTVYMHLSSLRSEDTAVYYCATARREYDRPGAEYFIQWGQGTLVTVSS
VL: EIVMTQSPATLSVSPGERATLSCRASQSVSTNLAWYQQKPGQAPRLLIYDAFLRATGIPARFSGSGSGTEFTLTISSLQPEDFAVYYCQQYNYWPPLTFGGGTKVEIK
B2: C9P1 (antibody, V domains shown)
VH: EVQLLESGGGLVQPGGSLRLSCVTSGFTFSSYSMTWVRQAPGKGLEWVSYISSSSRTISYADSVQGRFTISRDNAKNVLYLQMNSLRAEDTAVYYCARQAVAHFDYWGQGTLVTVSS
VL: EIVLTQSPGTLSLSPGERATLSCRASQRVSSNYLAWYQQKPGQAPRLLIYGASSRATGIPDRFSGSGSGTDFTLTISRLEPEDFAVYYCQQYGTSPRSFGQGTKVEIK
B3: D9P6 (antibody, V domains shown)
VH: QLQLQESGPGLVKPSETLSLTCTVSGTYISTNSYYWGWIRQPPGKGLEWIGSIEYGGSTYYNPSLRSRLTISVDTSKNHFSLRLSSVTAADTAMYYCASANSHYYDSGGYCAPSALDIWGQGTMVTVSS
VL: EIVMTQSPATLSVSPGERVTLSCRASQSASSHLAWYQHKRGQAPRLLIYAASSRATGIPARFSGRGSGTEFTLTISSLQSEDFAVYYCQQYNNWPPGYSFGQGTKLEIK
B4: D11P7 (antibody, V domains shown)
VH: EVQLVESGGGLVQPGGSLRLSCAASGFTFRSYTMDWVRQAPGKGLEWVSCISGSSNHKYYADSVRGRFTISRDNAKNSLFLQMNSLRAEDSAVYYCAREDDILTPLYGMDVWGPGTTVTVSS
VL: QSALTQPASVSGSPGQSITISCTGTSSDVGAYNYVSWYRLRPGKDPHLIIYDVSHRPAGVSNRFSGSKSGNTASLTISGLQAEDEDEYYCCSYAHRGTPLFGGGTKLTVL
B5: E10P2 (antibody, V domains shown)
VH: EVQLLESGGALVQPGGSLRLSCAASGFTFRSYAMNWVRQAPGKGLEWVSSLSSSGTTTYYADSVKGRFTISRDNSKNTMYLQMDSLRGEDTAVYYCAKDRNAQWLGSEPLDPWGQGTLVTVSS
VL: EIVLTQSPGTLSLSPGERATLSCRASQSVSSSYLAWYQQKPGQAPRLLIYGASSRATGIPDRFSGSGSGTDFTLTISSLQPDDFAIYYCQQAYTFPWTFGQGTKLEIK

How the values were obtained:
[1] = target: T1, VP1 pentamer of BKV genotype II (BK virus genotype II, UniProt P14996 30-300); experiment: ELISA, coated VP1 pentamer
T1 construct: also called VP1 pentamers of genotype II; GII; not shown: N-terminal His-tag of pESPRIT002; C-terminal biotin acceptor peptide (BAP) of pESPRIT002

[2] = target: T2, VP1 pentamer of BKV genotype IV (BK virus genotype IV, UniProt P14996 30-300); experiment: ELISA, coated VP1 pentamer
T2 construct: also called VP1 pentamers of genotype IV; GIV; not shown: N-terminal His-tag of pESPRIT002; C-terminal biotin acceptor peptide (BAP) of pESPRIT002

[3] = target: VP1 capsid protein on BKV genotype II pseudovirions (GBR-12; AB263920) (BK virus genotype II (GBR-12)); experiment: cell-based or functional assay
[4] = target: VP1 capsid protein on BKV genotype IVc2 pseudovirions (A-66H; AB369093) (BK virus genotype IVc2 (A-66H)); experiment: cell-based or functional assay
[5] = target: VP1 capsid protein on BKV genotype Ia pseudovirions (BK-D; JF894228) (BK virus genotype Ia (BK-D)); experiment: cell-based or functional assay

Row | Binder | binding result [1] | binding result [2] | Neutralization PSV IC50 [3] [µg/mL] | Neutralization PSV IC50 [4] [µg/mL] | Neutralization PSV IC50 [5] [µg/mL] | EC50 [1] [µg/mL] | EC50 [2] [µg/mL]
1 | B1 | no binding (tested: 50 µg/mL (starting concentration)) | no binding (tested: 50 µg/mL (starting concentration)) |  |  |  |  | 
2 | B2 | no binding (tested: 50 µg/mL (starting concentration)) | no binding (tested: 50 µg/mL (starting concentration)) |  |  |  |  | 
3 | B3 |  |  | > 50 | > 50 | > 50 | 9 | 4
4 | B4 | no binding (tested: 50 µg/mL (starting concentration)) | no binding (tested: 50 µg/mL (starting concentration)) |  |  |  |  | 
5 | B5 | no binding (tested: 50 µg/mL (starting concentration)) | no binding (tested: 50 µg/mL (starting concentration)) |  |  |  |  | 
